Source: patent US20070178464A1

Target: Probe II: N-terminal domains of Rluc and DnaE with nuclear localization signal (expressed from pcRDn-NLS) (Renilla; blue-green algae, PCC6803 strain) (UniProt P27652)
Experiment: cell-based or functional assay

Chain of Probe II: N-terminal domains of Rluc and DnaE with nuclear localization signal (expressed from pcRDn-NLS) (Renilla; blue-green algae, PCC6803 strain) (P27652 whole entry, the tested form may be a part): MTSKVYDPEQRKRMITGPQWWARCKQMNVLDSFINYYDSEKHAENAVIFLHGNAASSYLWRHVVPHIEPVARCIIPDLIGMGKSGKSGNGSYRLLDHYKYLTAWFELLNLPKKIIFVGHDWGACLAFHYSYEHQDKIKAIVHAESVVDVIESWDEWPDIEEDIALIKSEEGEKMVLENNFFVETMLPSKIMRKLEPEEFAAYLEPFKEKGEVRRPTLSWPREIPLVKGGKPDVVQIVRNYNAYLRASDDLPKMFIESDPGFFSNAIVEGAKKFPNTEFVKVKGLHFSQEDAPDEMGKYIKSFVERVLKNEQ

Probe I: AR connected to the C-terminal domains of RLuc and DnaE (expressed from pcDRc-AR) (from UniProt P27652 230-311; P10275 1-918)
luminescence intensity (cooled CCD image of mice implanted with transfected COS-7 cells): 20 times
